Assay results published in the supplement of paper PMC9732359.
± gives the uncertainty stated by the source.

Assay: protein stability index of a GFP-peptide fusion (yeast GPS) (PSI 1-4); higher = more stable; sorted into four equal gates, so the index is relative within each strain
Outline: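 Tiled 17-residue yeast protein peptides were fused downstream of GFP in a plasmid that also expresses Cherry, and the pooled library was carried in yeast. Mid-log cultures in leucine-free medium were sorted into four equal gates by GFP/Cherry fluorescence ratio, and plasmids from each gate were PCR-amplified and Illumina-sequenced, with reads assigned to strains by barcodes. The protein stability index for each peptide was each gate's read frequency times its gate number, summed.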

| Sequence | protein stability index (doa10∆) | protein stability index (pdr5∆) | protein stability index (san1∆) | protein stability index (ubr1∆) |
| --- | --- | --- | --- | --- |
| ILDPQVTRFTTWNGSPF [YJL039C/NUP192] | 1.26 ± 0.09 | 2.03 ± 0.12 | 1.51 ± 0.17 | 2.56 ± 0.12 |
| DDETPSCEVEEIGLLGG [SNU114] | 3.13 ± 0.11 | 3.35 ± 0.084 | 3.26 ± 0.07 | 3.14 ± 0.065 |
| FQETLDSTVVYPLPKFP [MED8] | 3.05 ± 0.05 | 3.19 ± 0.044 | 2.95 ± 0.042 | 3.15 ± 0.044 |
| WREIIEKVRDYENSISK [IRR1] | 2.86 ± 0.076 | 2.59 ± 0.085 | 2.39 ± 0.061 | 2.67 ± 0.047 |
| VSTSSGAAANNNDQKRQ [YJL041W/NSP1] | 3.37 ± 0.084 | 3.17 ± 0.073 | 3.27 ± 0.035 | 3.45 ± 0.069 |
| TQKTELEIDNKDSVTEC [SIR4] | 1.74 ± 0.061 | 3.15 ± 0.12 | 2.78 ± 0.14 | 2.5 ± 0.085 |
| NELQEERLKVPILVTLV [POP6] | 1.67 ± 0.034 | 1.99 ± 0.036 | 1.84 ± 0.053 | 1.7 ± 0.023 |
| EAAFRNIKTIAETLAEE [RPS5] | 2.79 ± 0.084 | 3.28 ± 0.076 | 3.25 ± 0.053 | 2.84 ± 0.046 |
| LAAPKKLNDSQRKTVNS [POP1] | 3.18 ± 0.075 | 2.98 ± 0.12 | 3.02 ± 0.065 | 3.34 ± 0.075 |
| STKVENSAIIQNLRKEL [YIL149C/MLP2] | 3.2 ± 0.084 | 2.88 ± 0.12 | 3.28 ± 0.071 | 3.3 ± 0.051 |
| TKLGFTFTIKEFVSYYY [SNU114] | 1.88 ± 0.054 | 2.02 ± 0.054 | 1.73 ± 0.067 | 1.76 ± 0.041 |
| NTLRKCYPQFAERDSQG [UBP6] | 2.92 ± 0.17 | 2.65 ± 0.15 | 2.79 ± 0.15 | 2.78 ± 0.12 |
| EDETLRRIKEAEENLKK [YIL149C/MLP2] | 3.54 ± 0.23 | 3.54 ± 0.15 | 3.26 ± 0.076 | 3.69 ± 0.13 |
| EVNSLLLQVNKTFCEDP [GRR1] | 3.27 ± 0.099 | 3.34 ± 0.066 | 3.22 ± 0.054 | 3.24 ± 0.044 |
| DDDDDDDDEVDYSEIQR [DSN1] | 2.98 ± 0.067 | 3.49 ± 0.087 | 3.41 ± 0.044 | 3.16 ± 0.084 |
| YTYLYVRMLASPMLYKV [BRR2] | 1.13 ± 0.12 | 1.19 ± 0.21 | 1.22 ± 0.21 | 1.26 ± 0.11 |
| QNEMIDAIAVTKGHGFE [RPL3] | 3.08 ± 0.11 | 3.21 ± 0.1 | 3.35 ± 0.1 | 3.34 ± 0.076 |
| IDQDIHGIVFQHPFPLA [SSN2] | 2.13 ± 0.044 | 2.25 ± 0.051 | 2.24 ± 0.059 | 2.64 ± 0.032 |
| TDKPFSSTQDVILRKIS [CSI1] | 2.87 ± 0.13 | 3.31 ± 0.13 | 2.92 ± 0.071 | 3.05 ± 0.06 |
| AASALDEKEKQLAVANE [SIR4] | 2.92 ± 0.081 | 3.28 ± 0.072 | 3.3 ± 0.055 | 3.36 ± 0.073 |

| Sequence | protein stability index (doa10∆) | protein stability index (pdr5∆) | protein stability index (san1∆) | protein stability index (ubr1∆) |
| --- | --- | --- | --- | --- |
| AAEPMDSKMIQDLSRNT [SNU114] | 2.93 ± 0.18 |  | 3.18 ± 0.19 |  |
| KKSKNGTISKTGKKNKV [SRP14] | 2.93 ± 0.11 | 3.26 ± 0.089 | 3.14 ± 0.059 | 3.51 ± 0.057 |
| TTGSIFEKDLMAYFDEN [BRN1] | 2.83 ± 0.055 | 3.15 ± 0.055 | 3.17 ± 0.043 | 3.13 ± 0.033 |
| KIIELMNKIFTIFKSGE [YML103C/NUP188] | 3.01 ± 0.08 | 2.22 ± 0.083 | 1.79 ± 0.11 | 2.8 ± 0.12 |
| EEEMAPYYKYLCEEYLV [RPN7] | 2.12 ± 0.087 | 2.74 ± 0.11 | 2.5 ± 0.14 | 2.64 ± 0.093 |
| QWSMVAQRLQISDYQQL [SWI1] | 1.53 ± 0.057 | 1.65 ± 0.054 | 1.59 ± 0.12 | 1.41 ± 0.054 |
| QFTGFLLHEMTQTYMQM [GRR1] | 1.92 ± 0.054 | 2.08 ± 0.036 | 2.2 ± 0.051 | 1.9 ± 0.041 |
| GILDEIMFNHARIIRSE [RGR1] | 2.75 ± 0.061 | 2.98 ± 0.071 | 3.08 ± 0.069 | 3.07 ± 0.032 |
| DNSEYSRNGDFPRTRFE [RPN10] | 3.13 ± 0.2 | 3.12 ± 0.22 | 3.45 ± 0.16 | 3.49 ± 0.17 |
| HMSTYLKIYKVGDIVDI [RPL21B] | 1.69 ± 0.036 | 1.64 ± 0.037 | 1.95 ± 0.052 | 1.95 ± 0.036 |
| VARIYASFNDTFVHVTD [RPS14A] | 1.96 ± 0.06 | 1.73 ± 0.04 | 2.12 ± 0.07 | 2.2 ± 0.055 |
| IEEEIFDDSSRIVNHKT [LIN1] | 3.14 ± 0.083 | 2.91 ± 0.1 | 3.11 ± 0.072 | 2.97 ± 0.071 |
| NVMLEKIKDNKEKIKNN [RPT5] | 2.78 ± 0.12 | 2.94 ± 0.087 | 2.55 ± 0.099 | 2.72 ± 0.094 |
| SKFSKQQAKGAFQKVAA [RPL24A] | 2.21 ± 0.065 | 2.7 ± 0.078 | 2.9 ± 0.05 | 2.54 ± 0.05 |
| RHGSVVEASRRRRSSTN [MED1] | 3.19 ± 0.073 | 3.41 ± 0.078 | 3.26 ± 0.045 | 3.3 ± 0.044 |
| FMLILALFVFYSPNTLG [COB] | 2.28 ± 0.074 | 2.15 ± 0.057 | 2.46 ± 0.056 | 2.52 ± 0.053 |
| ELTLAEQQVKEAEMAYV [SMC4] | 3.02 ± 0.1 | 3.1 ± 0.076 | 2.81 ± 0.078 | 2.81 ± 0.074 |
| GSPQMLANEERLSNEMH [RGR1] | 2.9 ± 0.074 | 2.95 ± 0.071 | 3.39 ± 0.051 | 2.93 ± 0.054 |
| ENPNFWRQFGNRMQISP [GRR1] | 3.14 ± 0.13 | 3.02 ± 0.13 | 2.93 ± 0.11 | 2.76 ± 0.12 |
